Experimental data published in the supplement of paper PMC12042874.
± gives the uncertainty stated by the source.

Assay: amyloid nucleation score (Sup35N fusion, yeast selection) (log enrichment); library NNK3; higher = more nucleation; inactive = no reads after selection
Summary of the method: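 The nucleation score is the log enrichment of output over input reads, calculated with DiMSum and centred on the mode score of non-aggregating sequences. Sequences with under 100 input reads were excluded. Reads came from Illumina sequencing of plasmid inserts from psi-negative yeast expressing Sup35N fused to peptides of 20 random codons, induced 24 hours with 100 μM copper sulfate and grown 7 days at 30°C without adenine and uracil.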

Row | Substance | amyloid nucleation score
1 | GTLVWNCDGCLDLKGRWVGG | inactive
2 | ERFRGMDRHVGVVWYDFV | inactive
3 | TAQFDNSCSGLQHVVVNK | inactive
4 | SKTMALMYLSFQPHYLYTLC | inactive
5 | RNFRRVSSRF | inactive
6 | FTSEAPIKVQHWVYTSLPSV | inactive
7 | SRCIFIIVIVSGSYGFSVSN | 1.14 ± 0.13
8 | GNVQIDASIKKSNGRWYGSV | -0.063 ± 0.31
9 | SSSGY | -0.007 ± 1
10 | FEFKSIGNRLGSYTQASWFA | inactive
11 | LYVFRCHLVVNDLNATNCSR | inactive
12 | LRSYFALINRLPCTCTRGGM | inactive
13 | YFFCCLR | 2.44 ± 0.059
14 | SYSHYFILHHLRDSELSHCS | inactive
15 | MYPHAQIEYYAVAHSLAIV | inactive
16 | QIKKAINHHKYFW | inactive
17 | YKVKIPMVCAVISGKSTWVG | inactive
18 | SNIRVKFHTPSIGMRCLRTR | inactive
19 | HKVQESAY | inactive
20 | DSLKIR | inactive
21 | WAQLRSTWTSSKAYWLTA | inactive
22 | GTVSSYLRTHSKVFSRRFRD | inactive
23 | AAEDRSWSHPATQFLLVVRQ | inactive

Row | Substance | amyloid nucleation score
24 | VSGSEFLDFKQLVYTLDAAC | 0.481 ± 0.35
25 | GCISVVSL | inactive
26 | YRYLVFLRLNLSLRILFGFK | inactive
27 | NLLSLVFIRWGNYRRFKMFR | 0.77 ± 0.22
28 | LSSVKCSKWSIFMYMRQYIW | inactive
29 | GVSDVVFWSIGYHGRRISQS | inactive
30 | NRFWLLCDFLFVHTCV | 0.897 ± 0.2
31 | LNPVKKLLGRLSGSREG | inactive
32 | SVNVHCIREPWVADWTCCRL | 1.18 ± 0.16
33 | GLCNNHIGKIFTYWNTPLDY | inactive
34 | NGDHRRCSLIT | inactive
35 | WMFLDTSGDIMPRGLTDYLE | inactive
36 | SFWTMGNS | inactive
37 | LGTPYMDMRG | 1.29 ± 0.15
38 | GAMNVESLSMFMRVYYVPYR | inactive
39 | ELISRMSFRSLCLAFFISVC | inactive
40 | RKEVEGGVPALYDDMRIFES | inactive
41 | CNLYPCPYSKITDTAMLLGC | inactive
42 | DLILWFPL | inactive
43 | SIGVRTRLKLCC | inactive
44 | KAPRMVLLRSGIVMLAHSEN | inactive
45 | RFCAFERG | inactive
46 | TSPNYTGPMNSCLRAWLWDR | inactive

Row | Substance | amyloid nucleation score
47 | SGKSFNVTGLPCMAWCRATD | inactive
48 | TWSWVVAASVKLISFKL | inactive
49 | EIFVFTM | inactive
50 | DSPRGV | inactive
51 | IKFRDVEGKTLVQKCSQIF | inactive
52 | NEFGEVLDSN | inactive
53 | LFTLWVMRFEFWYSCFFVSV | inactive
54 | MNTACS | inactive
55 | NLPTLRVVDILCLCFYRIPS | inactive
56 | FLLNLMIHLFYLVLKSRNQN | inactive
57 | AIDHSFT | inactive
58 | RMSLSGRYRHFWSGRCVCRE | inactive
59 | GISFFIMFILVPLFRKGVKV | inactive
60 | YYSSWLFTGMVGSYTFTALC | inactive
61 | DQGDRSFCSNLRLGYGVRAW | inactive
62 | SYVDLYVGWLNSWMYVMRSA | inactive
63 | LVISNIFRPHSVPWIIVENS | inactive
64 | RKHAGLYLQYE | inactive
65 | VVRFFLRTRTEGGYTWVLK | inactive
66 | HFNCRYNAGCDGVLVFDVLL | inactive
67 | YSRTDSQGMTNEMVNLGVDV | inactive
68 | VVTVGVMT | inactive
69 | DWYIVRMARCG | 0.984 ± 0.12

Row | Substance | amyloid nucleation score
70 | LFVIVMSFLFGWFFYRNNYA | 1.84 ± 0.099
71 | KYRPLKSCAHVMRDSIKSGC | inactive
72 | YCGYNR | inactive
73 | VSVLYYLKY | 0.132 ± 0.28
74 | CLVPFAGQWHTVEIMMSSCQ | inactive
75 | AWRKPCWGRVNYFLYIVGAG | 2.33 ± 0.088
76 | LFGTFYPFSTTRFNVVKPDG | inactive
77 | DECSAHSSFQLSKSILFGQV | inactive
78 | TVEVNCCYLEGNVV | 1.03 ± 0.089
79 | MGLLSTFFVEFFKT | inactive
80 | SWVRTGFL | inactive
81 | LVWSSSEVVFFA | inactive
82 | REKDSAAHVVE | inactive
83 | AEMDRRATFTGDHGDGFAIV | inactive
84 | ILVHTHLSTLSIRHTASPMT | inactive
85 | NLENVLFRDRYQSSTCKLCK | inactive
86 | LLMLTEQ | inactive
87 | IAPVFWITLYHNFTSRIDRF | 1.44 ± 0.14
88 | LTNRADE | inactive
89 | SSEPMHLEASIPVFAKE | inactive
90 | LCCFCCDPHLR | 2.64 ± 0.061
91 | ITPTFYVARTKPMLTGGCPK | inactive
92 | DTWRMFWPLVVLNCADGAPG | inactive

Row | Substance | amyloid nucleation score
93 | IVHCWLMSGASVWTLQETPN | -0.105 ± 1.4
94 | KVGSKVLEIFINTHYNWYCR | 0.145 ± 0.53
95 | SWFSVLLGLRTSRVIANSTY | inactive
96 | NCVRSLCMLWTTFTCVNDLC | 2.1 ± 0.079
97 | LFVMSLFGHLGLQIYRCLAL | inactive
98 | TDELYWLKDFLYGFYNMKSP | inactive
99 | WSSFPFCSRVYVQTWIDLTN | 1.52 ± 0.14
100 | RVSSGSIVTRQHDLN | inactive
101 | MVVGCCSEGV | inactive
102 | RSEVRR | -0.013 ± 0.51
103 | LRRDCFLDRSSLRHPVWEWL | inactive
104 | RLYFYDEKCIGCHGSNSLTQ | inactive
105 | TDCFGLMSSALP | inactive
106 | FSLSCPLSDPNVACTY | inactive
107 | FYWSLNSYVCASCMILFALM | inactive
108 | CFIKSMRVVMVILPFAPCLK | inactive
109 | PINETRSEESLVGSRGM | inactive
110 | SFPWSCPASYSYQGCWWERD | inactive
111 | VWLRGDVLGMTLHGCSIVTR | inactive
112 | VIRPFVYGDNLVSSTTAMIF | inactive
113 | RIKLRLFTTHEYCSRDRCSD | inactive
114 | CISFPDDWRSHTI | inactive
115 | LVFHQDMCGNYYFRH | 0.953 ± 0.13

Row | Substance | amyloid nucleation score
116 | NTGLNFCRASLSWTLGLYSS | inactive
117 | DLFGCPDLMMYTELIMLYW | inactive
118 | YFINKMILIDPL | inactive
119 | SGFFSVAGIGWYTIYFCIYR | inactive
120 | LLWLLIWEFHT | inactive
121 | IYLKYSSYRNSLIILAVD | inactive
122 | RSAFGIGFPGGYCVLDHYER | inactive
123 | PKCPCTWSRTYCVVLWLPRR | inactive
124 | NVLYLQLRPMNLCEANSEIG | inactive
125 | ALCKVMSKLPSISW | inactive
126 | PVKLC | inactive
127 | YMCKCSYVEMTHSA | inactive
128 | APYNFKDYCISGIWSGYIMF | inactive
129 | FRFFFRKSQFYNRSLDNLVR | inactive
130 | ILLRQKHVHNY | inactive
131 | TRNCGRSGYRL | 1.13 ± 0.089
132 | SFRYAYWLSNNCH | 0.378 ± 0.4
133 | VSSFWFCLS | inactive
134 | ACSVHFFHARW | 1.49 ± 0.14
135 | CRCKC | inactive
136 | MLVVWLFMWFIHINKRWDGA | inactive
137 | RSWSETC | inactive
138 | QDTLVPYMFKQITVYVYGLA | inactive

Row | Substance | amyloid nucleation score
139 | NTGVENGREVDYARGANRSP | inactive
140 | LWYSCLVSRSSIVSHGWVGL | inactive
141 | WANMQETFWRMWTRPVLTCG | inactive
142 | EKECRTWHHVDGSLVESCYY | inactive
143 | LCALP | inactive
144 | NLRFIRGANSA | inactive
145 | QWFVRNFLFNPNALRYFRSS | inactive
146 | MMNSWDPVMLYSYGNTEVVH | inactive
147 | QLMDLTGFRRSSVYVLVCDF | inactive
148 | ASLTYY | inactive
149 | YYSMTKNARCGHSFEAKSLF | inactive
150 | SFQFMFSRSSNRDFCILIQR | inactive
151 | GNWSYVENYV | inactive
152 | RVTDLFRRLASNYILSSTTA | inactive
153 | WGFVW | inactive
154 | SQSNGFGFFYMMSLVSWVDV | inactive
155 | VVKAFYRARELGFRAGLRTD | inactive
156 | SMASGRSALIKVV | inactive
157 | YGFNNWYKPSDLSRTPSESG | inactive
158 | SYDFIMVLPHEDRIDIVQQF | inactive
159 | TRYKELSFNTVSLVRYCAGG | inactive
